Measurements published in PMC4374696, “Protease Activity of PprI Facilitates DNA Damage Response: Mn(2+)-Dependence and Substrate Sequence-Specificity of the Proteolytic Reaction”.

T1: DdrO (Deinococcus radiodurans R1 (ATCC 13939)) (UniProt Q9RRB8)
T1 sequence: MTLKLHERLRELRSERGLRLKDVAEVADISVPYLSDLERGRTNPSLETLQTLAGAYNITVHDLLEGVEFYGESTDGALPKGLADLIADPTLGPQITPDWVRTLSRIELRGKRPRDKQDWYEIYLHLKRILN

T2: DdrO (Deinococcus radiodurans R1 (ATCC 13939), UniProt Q9RRB8 1-131)
T2 sequence: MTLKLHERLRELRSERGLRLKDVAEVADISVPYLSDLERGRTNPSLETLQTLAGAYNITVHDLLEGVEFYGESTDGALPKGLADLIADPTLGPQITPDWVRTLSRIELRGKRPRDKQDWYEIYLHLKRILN


Columns and labels:
[1] = molecular target: T1, DdrO (Deinococcus radiodurans R1 (ATCC 13939)); experiment: EMSA; conditions: 150 mM NaCl, 20 mM Tris-HCl pH 8.0, 5 mM MgCl2, 1.6 uM DNA, 0-16 uM protein, 30 C; 12% TB-PAGE
[2] = molecular target: T2, DdrO; experiment: EMSA; 150 mM NaCl, 20 mM Tris-HCl pH 8.0, 5 mM MgCl2, 1.6 uM DNA, 0-16 uM protein, 30 C; 12% TB-PAGE; conditions: protein: recombinant; tags: 6xHis-MBP tag removed by TEV; chain copies: 2; blunt

Molecule	binding [1]	binding result [2]
AGAAACACCAGCATGATCGCAAGGTAGGCTGCTCCGCGCACTGGGGCGTCCGCCGAAAGGTGCAGCGCGCCTCACCTTCCCTTGACCCATCCCATTCAGGGCCGCACCCTGTAGACACTGGTTACGTCCTCCCATATACTCCGGTGAGGTTGTTATGCTGCTAGCAGAAATCATCAGTGTGGGCACG (double strand) [PrecA (recA promoter, RDRM)]	binds	–
AGGAGCAGTTTCTTCATGAAGCCTCCAGATCAAAGGCGCACGAAGCAGGCCTGCCCCAAAGGAAGGCGGGCCTGCTGGGTTGCGTGACAGCCGGGACGTAAATAATGGCCCCAGGGTAGGGGCGGGCCGGGGGGGTGTCAAGGTACGCAGCGGGGGGCCTCCATGATTCTGCCCACAACGTAAACGCGCTATCCTGGGGAG (double strand) [PrecQ- (no RDRM)]	no binding	–
TAAAAAGGCCAGGGGTAGCACTCTGGCATAAGGAAAACCCAGCTTCGGCGGTCTTTGTGCCTTTGCCAGCTTTCACGGCGAAAGAAACGTCCAGATGACAGTGACACCCAAAGTGCACCCGGCGCCGTTCAGGGCACAGGTGCGGACTACAGTGGGGCCGTGAC (double strand) [PpprA- (no RDRM)]	no binding	–
AGTTTAGAACAGAATAACATTACGGTCAAGACATAAAACGCCAGTTGATTAAGGGGAAATGGAGAGGGGTTCGGGGCGGCCCCTGCCTGCTCTGTCGGCCAGCTTTCGGCAGAGTGGGCCCCGGCTCCGGCGCACTGACGCGGGCTAGACCCTCCCGCGCCGCCCTCCACCGCCGCCTCTACCTTCGTCCTATGCCCCG (double strand) [PddrA]	binds	–
TACTGCGGTCTGACGATGACCTCGTCCTTATCTGCGGGAGCCTCTATCTGCTCGGCGAACTGCGTCCTTTGCTGCTGGGCGAGCAGTCGGAAGGCCACGAACGCTGGCAATAGCCACAGCAGCGGCCAATTTCTGGTTTCGAAACAGGAATAAGGCAAGTTGACTGCCCTCA (double strand) [PddrO- (no RDRM)]	no binding	–
CAACCTCACCGGAGTATATGGGAGGACGTAACCAGTGTCTACAGGGTGCGGCCCTGAATGGGATGGGTCAAGGGAAGGTGAGGCGCGCTGCACCTTTCGGCGGACGCCCCAGTGCGCGGAGCAGCCTACCTTGCGATCATGCTGGTGTTTCT (double strand) [PrecA- (no RDRM)]	no binding	–
GCACTGCGGCTTGCAGCGCCGGGTGACCATGCCCAGCCTCCCTGCTCCAGCGCCCGCCCGCAAACCCGAGCGGCGGCTGTTCGGGCTCTTGCGAATCTGAAGGTCTTGGTGCCCGGCCTCTGCTGGGAGGCGGGACACTGGCACCGGCTTCCCCGATGTGTTATGTTATTTACGTAAGGAGGAGGCAGATGTTGCAGATT (double strand) [PddrB]	binds	–
GCACTGCGGCTTGCAGCGCCGGGTGACCATGCCCAGCCTCCCTGCTCCAGCGCCCGCCCGCAAACCCGAGCGGCGGCTGTTCGGGCTCTTGCGAATCTGAAGGTCTTGGTGCCCGGCCTCTGCTGGGAGGCGGGACACTGGCACCGGCTTCCCCGATGTG (double strand) [PddrB- (no RDRM)]	no binding	–
AACGCCAGTTGATTAAGGGGAAATGGAGAGGGGTTCGGGGCGGCCCCTGCCTGCTCTGTCGGCCAGCTTTCGGCAGAGTGGGCCCCGGCTCCGGCGCACTGACGCGGGCTAGACCCTCCCGCGCCGCCCTCCACCGCCGCCTCTACCTTCGTCCTATGCCCCG (double strand) [PddrA- (no RDRM)]	no binding	–
TACTGCGGTCTGACGATGACCTCGTCCTTATCTGCGGGAGCCTCTATCTGCTCGGCGAACTGCGTCCTTTGCTGCTGGGCGAGCAGTCGGAAGGCCACGAACGCTGGCAATAGCCACAGCAGCGGCCAATTTCTGGTTTCGAAACAGGAATAAGGCAAGTTGACTGCCCTCATTCTGTATTGACCGTAGCAAGGAGCGGTGTTACACT (double strand) [PddrO]	binds	–
TAGTAACAAGCAGAGTCAATTATGTCAATGACATAAAAGGCTCAGGCCTTCTTGGTCTTCCACTCCGGGCGGTCCTTGACCACCAGGACGCGGCGGACGTTGTCGCGCAGGCGCAGGCTGCTGGCGATGGCGGTTTCGGGGTTGCCCGAAGCCTTGATGGTGTACATCAGGTAGTAGCCTTCGCGGTCCTTGCCCACCTGG (double strand) [PdrssB]	binds	–
CCCTTGCCATACTGCCTTTATTATGCCCTGAACAGATTAAAAAGGCCAGGGGTAGCACTCTGGCATAAGGAAAACCCAGCTTCGGCGGTCTTTGTGCCTTTGCCAGCTTTCACGGCGAAAGAAACGTCCAGATGACAGTGACACCCAAAGTGCACCCGGCGCCGTTCAGGGCACAGGTGCGGACTACAGTGGGGCCGTGAC (double strand) [PpprA]	binds	–
minimum DdrO binding sequence of PrecA (21 bp) (dsDNA) DNA 1: TGTTATGCTGCTAGCAGAAAT DNA 2: ATTTCTGCTAGCAGCATAACA	–	binds
